{"source": "paper PMC10543426", "about": "“The PALB2 DNA-binding domain is an intrinsically disordered recombinase” (Research Square, 2023)", "molecules": {"B1": {"name": "PALB2 DNA-binding domain (PALB2-DBD), N-terminal fragment 1-195 I195W (domain or fragment, human, UniProt Q86YC2 1-195, looked up)", "chain": "MDEPPGKPLSCEEKEKLKEKLAFLKREYSKTLARLQRAQRAEKIKHSIKKTVEEQDCLSQQDLSPQLKHSEPKNKICVYDKLHIKTHLDEETGEKTSITLDVGPESFNPGDGPGGLPIQRTDDTQEHFPHRVSDPSGEQKQKLPSRRKKQQKRTFISQERDCVFGTDSLRLSGKRLKEQEEISSKNPARSPVTEW", "notes": "Partner and Localizer of BRCA2 (PALB2), human, amino acids 1-195; the last amino acid mutated to tryptophan to increase absorption at 280 nm; SUMO cleaved with Ulp1 and MBP with TEV protease; also called PLAB2-DBD; source: E. coli BL21*, purified (amylose resin, heparin, gel filtration); not shown: 6×His-SUMO, N-terminal, cleaved; MBP, C-terminal, cleaved"}}, "key": {"[1]": {"biological_target": "PALB2 coiled-coil (Homo sapiens) (UniProt Q86YC2)", "assay": "NMR titration", "details": "cited from earlier work"}, "[2]": {"biological_target": "the molecule itself", "assay": "AUC; sedimentation velocity, protein alone; 1 M NaCl, 10% glycerol, 1 mM TCEP, 2 mM CHAPS, 25 mM HEPES pH 7.5; 30,000 rpm, 20°C, absorbance at 280 nm; relatively high protein concentration"}, "[3]": {"biological_target": "the molecule itself", "assay": "AUC; sedimentation velocity with Cy3-labelled ssDNA (Cy3-dT50 or Cy3-dT25), DNA:protein molar ratios 1:2 and 1:4 (4 and 8 μM protein), 0.1 M NaCl, 10% glycerol, 1 mM TCEP, 2 mM CHAPS, 25 mM HEPES pH 7.5, 20°C, absorbance at 550 nm; dimers to tetramer"}, "PALB2-DBD [4]": {"biological_target": "T1, PALB2-DBD (Homo sapiens, UniProt Q86YC2 1-195, I195W)", "T1 sequence": "B1 chain", "assay": "smFRET; mean FRET 0.18 free, 0.45 and 0.79 bound; AUC of DNA complexes: 0.1 M NaCl, 20 C; smFRET, EPR and CD buffers not in the material", "details": "protein: recombinant; tags: 6xHis-SUMO and MBP, cleaved by Ulp1/TEV; chain copies: 2; label: 5' Cy3, Cy5 at position 50; single strand"}, "PALB2-DBD [5]": {"biological_target": "T1, PALB2-DBD", "assay": "analytical ultracentrifugation; DNA:protein 1:2 and 1:4; 0.1 M NaCl; AUC of DNA complexes: 0.1 M NaCl, 20 C; smFRET, EPR and CD buffers not in the material", "details": "protein: recombinant; tags: 6xHis-SUMO and MBP, cleaved by Ulp1/TEV; chain copies: 2; label: Cy3; single strand"}, "PALB2-DBD [6]": {"biological_target": "T1, PALB2-DBD", "assay": "analytical ultracentrifugation; DNA:protein 1:2 and 1:4; no free DNA peak; 0.1 M NaCl; AUC of DNA complexes: 0.1 M NaCl, 20 C; smFRET, EPR and CD buffers not in the material", "details": "protein: recombinant; tags: 6xHis-SUMO and MBP, cleaved by Ulp1/TEV; chain copies: 2; label: 5' Cy3; single strand"}}, "data": [{"molecule": "PALB2 coiled-coil (from UniProt Q86YC2)", "values": [{"measurement": "Kd", "setting": "[1]", "result": 80, "unit": "µM"}]}, {"molecule": "B1", "values": [{"measurement": "stoichiometry N", "setting": "[2]", "result": 2}, {"measurement": "stoichiometry N", "setting": "[3]", "result": 4}]}, {"molecule": "TTTTTTTTTTTTTTTTTTTTTTTTTTTTTTTTTTTTTTTTTTTTTTTTTT (ssDNA)", "note": "[Cy3-dT50-Cy5]", "values": [{"measurement": "binding result", "setting": "PALB2-DBD [4]", "result": "binds"}]}, {"molecule": "TTTTTTTTTTTTTTTTTTTTTTTTTTTTTTTTTTTTTTTTTTTTTTTTTT (ssDNA)", "note": "[Cy3-dT50]", "values": [{"measurement": "binding result", "setting": "PALB2-DBD [5]", "result": "binds"}]}, {"molecule": "TGGCGACGGCAGCGAGGCTCTCTAC (ssDNA)", "note": "[Cy3-dT25 (25mer)]", "values": [{"measurement": "binding result", "setting": "PALB2-DBD [6]", "result": "binds"}]}]}
